Patent US20210260173A1

Molecular target: IgG-type of BCR (membrane-bound IgG) on Nu-DUL-1 cells
Test: cell-based or functional assay

In the case of “Immunoglobulin G-degrading enzyme of S. pyogenes (IdeS)”, the loss of anti-Fab signal on Nu-DUL-1 cells (flow cytometry) after IdeS treatment is reported as greater than 4 µg/mL and the membrane bound IgG on Nu-DUL-1 cells one hour after IdeS treatment and wash (flow cytometry, anti-Fab) is reported as greater than 4 µg/mL.
